To fix the notation:
B1: PDLIM4 (parent)
chain: FLDERLYCESHAKARVKPPEGYDV

This is an account of results in the supplement of paper PMC10567573.
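Also: lentivirally expressed fusions sorted by FACS into six bins by GFP to DsRed ratio, PSI derived from sequencing read proportions per bin multiplied by bin number.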

The variants in the series derive from B1. The experiment in a line: protein stability index of a GFP-peptide fusion (GPS, HEK-293T) (PSI 1-6); higher = more stable. To be noted: c terminus: a fixed tail appended.
For FLDERLYCESHAKARVSPPEGYDV [K17S], the protein stability index was 1.48.
Under FLDERLYCESHAKARVLPPEGYDV [K17L] stands 2.56; under FLDERLYCESHAKARVCPPEGYDV [K17C], 1.99; under FLDERLYCESHAKARVMPPEGYDV [K17M], 2.53.
Under FLDERLYCESHAKARVVPPEGYDV [K17V] stands 2.62; under FLDERLYCESHAKARVYPPEGYDV [K17Y], 1.66; under FLDERLYCESHAKARVRPPEGYDV [K17R], 1.87.
Regarding FLDERLYCESHAKARVHPPEGYDV [K17H], the protein stability index was found to be 1.88.
The figure for FLDERLYCESHAKARVQPPEGYDV [K17Q] is 1.86.
The figure for FLDERLYCESHAKARVNPPEGYDV [K17N] is 1.87.
For FLDERLYCESHAKARVAPPEGYDV [K17A], the protein stability index stood at 1.91.
Turning to FLDERLYCESHAKARVFPPEGYDV [K17F], the protein stability index is 2.12.
For the variant FLDERLYCESHAKARVIPPEGYDV [K17I], the protein stability index came to 1.33.
Under FLDERLYCESHAKARVKPREGYDV [P19R] stands 2.65.
Under FLDERLYCESHAKARVKPMEGYDV [P19M] stands 1.77.
As to FLDERLYCESHAKARVKPFEGYDV [P19F], the protein stability index was 1.93.
The figure for FLDERLYCESHAKARVKPNEGYDV [P19N] is 1.21; for FLDERLYCESHAKARVKPDEGYDV [P19D] it is 2.15.
The figure for FLDERLYCESHAKARVKPGEGYDV [P19G] is 2.01.
Under FLDERLYCESHAKARVKPLEGYDV [P19L] stands 2.26; under FLDERLYCESHAKARVKPYEGYDV [P19Y], 1.43.
For FLDERLYCESHAKARVKPKEGYDV [P19K], the protein stability index was found to be 2.31.
The figure for FLDERLYCESHAKARVKPHEGYDV [P19H] is 1.72; for FLDERLYCESHAKARVKPIEGYDV [P19I] it is 1.86.
Under FLDERLYCESHAKARVKPTEGYDV [P19T] stands 2.29; under FLDERLYCESHAKARVKPEEGYDV [P19E], 1.05.
In the case of FLDERLYCESHAKARVKPWEGYDV [P19W], the protein stability index turned out to be 2.75.
Under FLDERLYCESHAKARVKPSEGYDV [P19S] stands 1.11; under FLDERLYCESHAKARVKPCEGYDV [P19C], 2.26; under FLDERLYCESHAKARVKPPETYDV [G21T], 2.14.
Under FLDERLYCESHAKARVKPPEDYDV [G21D] stands 2.94; under FLDERLYCESHAKARVKPPEYYDV [G21Y], 2.09; under FLDERLYCESHAKARVKPPEPYDV [G21P], 1.8.
As to FLDERLYCESHAKARVKPPEMYDV [G21M], the protein stability index is 2.4.
For the variant FLDERLYCESHAKARVKPPEFYDV [G21F], the protein stability index was 1.72.
Under FLDERLYCESHAKARVKPPEAYDV [G21A] stands 1.83; under FLDERLYCESHAKARVKPPEIYDV [G21I], 2.25; under FLDERLYCESHAKARVKPPEVYDV [G21V], 2.34.
Under FLDERLYCESHAKARVKPPEHYDV [G21H] stands 1.59; under FLDERLYCESHAKARVKPPEEYDV [G21E], 2.62; under FLDERLYCESHAKARVKPPELYDV [G21L], 1.77.
Under FLDERLYCESHAKARVKPPEWYDV [G21W] stands 1.49; under FLDERLYCESHAKARVKPPEQYDV [G21Q], 2.4.
For the variant FLDERLYCESHAKARVKPPESYDV [G21S], the protein stability index worked out at 1.69.
Under FLDERLYCESHAKARVKPPEKYDV [G21K] stands 1.63; under FLDERLYCESHAKARVKPPECYDV [G21C], 1.89; under FLDERLYCESHAKARVKPPENYDV [G21N], 2.4.
Under FLDERLYCESHAKARVKNPEGYDV [P18N] stands 1.54.
Under FLDERLYCESHAKARVKHPEGYDV [P18H] stands 1.69.
In the case of FLDERLYCESHAKARVKGPEGYDV [P18G], the protein stability index came out at 1.75.
For the variant FLDERLYCESHAKARVKTPEGYDV [P18T], the protein stability index came out at 1.71.
With FLDERLYCESHAKARVKIPEGYDV [P18I], the protein stability index came out at 1.01.
Under FLDERLYCESHAKARVKAPEGYDV [P18A] stands 2.82; under FLDERLYCESHAKARVKRPEGYDV [P18R], 2.41; under FLDERLYCESHAKARVKSPEGYDV [P18S], 2.52.
The figure for FLDERLYCESHAKARVKYPEGYDV [P18Y] is 2.46; for FLDERLYCESHAKARVKVPEGYDV [P18V] it is 1.96.
Under FLDERLYCESHAKARVKEPEGYDV [P18E] stands 1.75; under FLDERLYCESHAKARVKMPEGYDV [P18M], 1.1.
With FLDERLYCESHAKARVKQPEGYDV [P18Q], the protein stability index came to 2.38.
With FLDERLYCESHAKARVKFPEGYDV [P18F], the protein stability index was 2.16.
Consider FLDERLYCESHAKARVKDPEGYDV [P18D], for which the protein stability index is 1.36.
On to FLDERLYCESHAKARVKPPEGYWV [D23W], for which the protein stability index came to 1.81.
As for FLDERLYCESHAKARVKPPEGYTV [D23T], the protein stability index worked out at 2.03.
Under FLDERLYCESHAKARVKPPEGYSV [D23S] stands 2.85; under FLDERLYCESHAKARVKPPEGYIV [D23I], 1.81; under FLDERLYCESHAKARVKPPEGYCV [D23C], 1.65.
Under FLDERLYCESHAKARVKPPEGYYV [D23Y] stands 2.45.
The figure for FLDERLYCESHAKARVKPPEGYQV [D23Q] is 2.23; for FLDERLYCESHAKARVKPPEGYFV [D23F] it is 1.73.
As to FLDERLYCESHAKARVKPPEGYPV [D23P], the protein stability index was 2.3.
The figure for FLDERLYCESHAKARVKPPEGYGV [D23G] is 1.14.
Regarding FLDERLYCESHAKARVKPPEGYHV [D23H], the protein stability index worked out at 3.11.
Under FLDERLYCESHAKARVKPPEGYNV [D23N] stands 2.3; under FLDERLYCESHAKARVKPPEGYKV [D23K], 2.53.
Under FLDERLYCESHAKARVKPPEGYAV [D23A] stands 1.48; under FLDERLYCESHAKAVVKPPEGYDV [R15V], 1.77.
Under FLDERLYCESHAKAYVKPPEGYDV [R15Y] stands 1.58.
As for FLDERLYCESHAKAGVKPPEGYDV [R15G], the protein stability index came to 1.7.
Under FLDERLYCESHAKAFVKPPEGYDV [R15F] stands 2.33; under FLDERLYCESHAKATVKPPEGYDV [R15T], 1.67; under FLDERLYCESHAKACVKPPEGYDV [R15C], 1.97.
The figure for FLDERLYCESHAKADVKPPEGYDV [R15D] is 1.93.
Under FLDERLYCESHAKAKVKPPEGYDV [R15K] stands 2.18; under FLDERLYCESHAKAQVKPPEGYDV [R15Q], 2.41; under FLDERLYCESHAKAMVKPPEGYDV [R15M], 1.18.
FLDERLYCESHAKAEVKPPEGYDV [R15E]: the protein stability index turned out to be 1.34.
Under FLDERLYCESHAKAWVKPPEGYDV [R15W] stands 3.92; under FLDERLYCESHAKAHVKPPEGYDV [R15H], 3.03.
With FLDERLYCESHAKALVKPPEGYDV [R15L], the protein stability index stood at 2.41.
Under FLDERLYCESHAKAIVKPPEGYDV [R15I] stands 2.03.
Under FLDERLYCESHAKAAVKPPEGYDV [R15A] stands 2.13; under FLDERLYCESHAKAPVKPPEGYDV [R15P], 1.26; under FLDERLYCESHAKANVKPPEGYDV [R15N], 1.53.
